Assay [1] concerns the target T1, His-ORP1L (UniProt Q9BXW6-1 1-950).
T1 construct: ORP1L in pET-28a; source: prokaryotic expressed, purified
T1 sequence (looked up): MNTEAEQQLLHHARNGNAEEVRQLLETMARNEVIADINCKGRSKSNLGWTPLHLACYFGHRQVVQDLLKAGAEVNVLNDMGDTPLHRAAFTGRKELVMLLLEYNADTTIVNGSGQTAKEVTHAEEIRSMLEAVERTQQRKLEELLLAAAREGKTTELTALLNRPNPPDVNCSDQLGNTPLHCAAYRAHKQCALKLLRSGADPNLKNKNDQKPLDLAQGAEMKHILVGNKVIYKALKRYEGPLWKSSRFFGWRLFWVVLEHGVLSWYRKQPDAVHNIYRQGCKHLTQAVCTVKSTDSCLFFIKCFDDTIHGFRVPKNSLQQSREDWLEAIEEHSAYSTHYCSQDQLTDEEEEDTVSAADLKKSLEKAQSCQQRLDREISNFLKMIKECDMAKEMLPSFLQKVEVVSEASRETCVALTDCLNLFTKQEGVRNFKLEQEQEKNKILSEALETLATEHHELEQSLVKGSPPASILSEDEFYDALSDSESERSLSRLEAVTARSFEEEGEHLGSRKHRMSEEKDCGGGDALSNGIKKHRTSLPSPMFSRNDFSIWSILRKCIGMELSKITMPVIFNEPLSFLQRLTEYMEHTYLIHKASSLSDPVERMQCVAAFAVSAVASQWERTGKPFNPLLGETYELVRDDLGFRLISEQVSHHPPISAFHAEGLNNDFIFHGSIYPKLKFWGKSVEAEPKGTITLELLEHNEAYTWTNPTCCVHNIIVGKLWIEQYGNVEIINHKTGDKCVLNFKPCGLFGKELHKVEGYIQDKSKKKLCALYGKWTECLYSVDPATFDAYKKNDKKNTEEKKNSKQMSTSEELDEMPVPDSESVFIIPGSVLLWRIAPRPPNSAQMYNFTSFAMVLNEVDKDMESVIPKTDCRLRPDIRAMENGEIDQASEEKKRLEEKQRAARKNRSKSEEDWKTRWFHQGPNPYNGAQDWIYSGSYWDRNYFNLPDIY
Put plainly: pull-down; in vitro binding: purified prokaryotic expressed His-ORP1L or His-ORP1L(336-950aa) with increasing amounts of His-RILP, incubated with GST-VAPa(1-225aa) retained on GST beads; ORP1L bound assessed by Western blot. The following applies: both partners purified. On the technique in general: In western blotting, separated proteins are transferred to a membrane and probed.

For assay [2], the target named is T2, His-ORP1L(336-950aa) (UniProt Q9BXW6-1 336-950).
T2 construct: source: prokaryotic expressed, purified
T2 sequence (looked up): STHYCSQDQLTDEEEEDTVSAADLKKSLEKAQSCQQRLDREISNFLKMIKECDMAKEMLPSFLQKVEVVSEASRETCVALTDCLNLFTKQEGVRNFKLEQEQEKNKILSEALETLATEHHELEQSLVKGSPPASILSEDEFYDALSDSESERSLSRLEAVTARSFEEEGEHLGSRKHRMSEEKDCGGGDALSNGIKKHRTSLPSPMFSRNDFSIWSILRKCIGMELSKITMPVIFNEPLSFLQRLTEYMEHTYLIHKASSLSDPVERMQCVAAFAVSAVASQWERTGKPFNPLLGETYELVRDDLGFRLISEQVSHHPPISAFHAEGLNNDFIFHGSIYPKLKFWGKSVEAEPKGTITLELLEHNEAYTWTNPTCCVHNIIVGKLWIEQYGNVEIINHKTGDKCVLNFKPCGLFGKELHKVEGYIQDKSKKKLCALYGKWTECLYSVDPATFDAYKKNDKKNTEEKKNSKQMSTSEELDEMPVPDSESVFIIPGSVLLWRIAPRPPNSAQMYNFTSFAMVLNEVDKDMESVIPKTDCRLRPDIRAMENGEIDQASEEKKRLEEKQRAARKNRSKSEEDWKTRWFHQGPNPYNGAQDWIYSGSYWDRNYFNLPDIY
The description is as above. The following applies: both partners purified.

B1: GST-VAPa(1-225aa) (domain or fragment, UniProt Q9P0L0 1-225, looked up)
chain: MASASGAMAKHEQILVLDPPTDLKFKGPFTDVVTTNLKLRNPSDRKVCFKVKTTAPRRYCVRPNSGIIDPGSTVTVSVMLQPFDYDPNEKSKHKFMVQTIFAPPNTSDMEAVWKEAKPDELMDSKLRCVFEMPNENDKLNDMEPSKAVPLNASKQDGPMPKPHSVSLNDTETRKLMEECKRLQGEMMKLSEENRHLRDEGLRLRKVAHSDKPGSTSTASFRDNVT
notes: VAP-A (vesicle-associated membrane protein-associated protein A) residues 1-225, the cytoplasmic region; subcloned into pGEX-4T-1; also called GST-tagged VAP-A(1-225aa); source: prokaryotic expressed, retained on GST beads (GST-Sepharose 4B resin)
As to B1, the binding result in assay [1] and in assay [2] was “binds” in each case.

B2: His-RILP (natural protein, UniProt Q96NA2 1-401, looked up)
chain: MEPRRAAPGVPGWGSREAAGSASAAELVYHLAGALGTELQDLARRFGPEAAAGLVPLVVRALELLEQAAVGPAPDSLQVSAQPAEQELRRLREENERLRRELRAGPQEERALLRQLKEVTDRQRDELRAHNRDLRQRGQETEALQEQLQRLLLVNAELRHKLAAMQTQLRAAQDRERERQQPGEAATPQAKERARGQAGRPGHQHGQEPEWATAGAGAPGNPEDPAEAAQQLGRPSEAGQCRFSREEFEQILQERNELKAKVFLLKEELAYFQRELLTDHRVPGLLLEAMKVAVRKQRKKIKAKMLGTPEEAESSEDEAGPWILLSDDKGDHPPPPESKIQSFFGLWYRGKAESSEDETSSPAPSKLGGEEEAQPQSPAPDPPCSALHEHLCLGASAAPEA
notes: RILP in pET-28a; source: prokaryotic expressed, purified
As for B2, the binding result in assay [2] is given as “binds”.

(Values after article PMC11352460, “RILP Induces Cholesterol Accumulation in Lysosomes by Inhibiting Endoplasmic Reticulum–Endolysosome Interactions” (Cells, 2024).)
